Legend:
Test in all cases: cell-based or functional assay
[1] = target: HIV-1 MGRM-F1-018 Env (pseudovirus) (HIV-1)
[2] = target: HIV-1 92RW020 envelope glycoprotein (Env) (HIV-1)
[3] = target: HIV-1 Env of isolate MGRM-G-015 (subtype G) (HIV-1)
[4] = target: HIV-1 Env of isolate MGRM-D-008 (HIV-1)
[5] = target: HIV-1 Env of pseudovirus CAAN.A2 (Acute), clade B (HIV-1)
[6] = target: HIV-1 MGRM-C-007 Env (HIV-1)
[7] = target: HIV-1 Env of isolate MGRM-D-014 (HIV-1)
[8] = target: HIV-1 Env of isolate MGRM-D-011 (clade D) (HIV-1)
[9] = target: HIV-1 Env of isolate MGRM-D-013 (HIV-1)
[10] = target: HIV-1 MGRM-D-018 envelope glycoprotein (Env) on pseudovirus (HIV-1)
[11] = target: HIV-1 Env of isolate 92UG031 (HIV-1)
[12] = target: HIV-1 APV-6 envelope protein (Env) on pseudovirus (HIV-1)
[13] = target: HIV-1 Env of isolate MGRM-G-014 (subtype G) (HIV-1)
[14] = target: HIV-1 Env of isolate MGRM-D-002 (clade D) (HIV-1)
[15] = target: HIV-1 APV6 envelope glycoprotein (Env) on pseudovirus (HIV-1)
[16] = target: HIV-1 Env of isolate MGRM-D-020 (clade D) (HIV-1)
[17] = target: HIV-1 Env of isolate MGRM-D-004 (clade D) (HIV-1)
[18] = target: HIV-1 MGRM-C-019 Env (HIV-1)
[19] = target: HIV-1 MGRM-A-014 envelope glycoprotein (Env) (HIV-1)
[20] = target: HIV-1 Env of isolate MGRM-G-009 (subtype G) (HIV-1)
[21] = target: HIV-1 MGRM-F1-006 Env (pseudovirus) (HIV-1)
[22] = target: HIV-1 Env of isolate 92UG024 (clade D) (HIV-1)
[23] = target: HIV-1 Env of pseudovirus JRCSF, clade B (HIV-1) (UniProt P20871)
[24] = target: HIV-1 93TH305 Env (pseudovirus) (HIV-1)
[25] = target: HIV-1 Env of isolate MGRM-C-001 (pseudovirus) (HIV-1 isolate MGRM-C-001, subtype C)
[26] = target: HIV-1 Env of isolate MG RM-D-003 (subtype D) (HIV-1)
[27] = target: HIV-1 Env of isolate MGRM-C-006 (pseudovirus) (HIV-1 isolate MGRM-C-006, subtype C)
[28] = target: HIV-1 Env of isolate MG RM-AG-009 (HIV-1)
[29] = target: HIV-1 Env of isolate MG RM-D-021 (subtype D) (HIV-1)
[30] = target: aMLV envelope on pseudovirus (negative control virus)
[31] = target: HIV-1 Env of isolate MG RM-D-014 (subtype D) (HIV-1)
[32] = target: HIV-1 JR-CSF Env V182A (HIV-1 (isolate JR-CSF)) (UniProt P20871)
[33] = target: HIV-1 JR-CSF Env N156A (HIV-1 (isolate JR-CSF)) (UniProt P20871)
[34] = target: HIV-1 JR-CSF Env D113A (HIV-1 (isolate JR-CSF)) (UniProt P20871)
[35] = target: HIV-1 Env of isolate MGRM-C-009 (HIV-1)
[36] = target: HIV-1 Env of isolate 92WR024 (HIV-1)
[37] = target: HIV-1 Env of isolate MGRM-A-011 (clade A), on pseudovirus (HIV-1)
[38] = target: HIV-1 Env of isolate MGRM-A-013 (clade A), on pseudovirus (HIV-1)
[39] = target: HIV-1 Env of isolate MGRM-C-012 (HIV-1)
[40] = target: HIV-1 Env of isolate 92WR026 (HIV-1)
[41] = target: HIV-1 Env of isolate MGRM-F1-015 (subtype F), on pseudovirus (HIV-1)

5329_C19 (PGT-136) (antibody), sequence (VH): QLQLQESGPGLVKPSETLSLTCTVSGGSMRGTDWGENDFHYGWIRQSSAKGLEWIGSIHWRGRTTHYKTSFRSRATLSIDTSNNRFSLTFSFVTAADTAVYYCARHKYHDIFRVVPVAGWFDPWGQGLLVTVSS
5329_C19 (PGT-136) (antibody), sequence (VL): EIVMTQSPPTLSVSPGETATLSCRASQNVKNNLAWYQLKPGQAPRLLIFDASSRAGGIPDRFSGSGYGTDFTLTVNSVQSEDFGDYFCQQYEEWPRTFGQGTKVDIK

1496_C09 (PG9) (TCN-109) (antibody) was tested, and the IC50 (µg/ml), pseudovirus neutralization [1] was 0.03 µg/mL, the IC50 (µg/ml), pseudovirus neutralization [2] was 0.08 µg/mL and the IC50 neutralization [2] was 0.161 µg/mL. For the same substance, the neutralization IC50 [3] was 6.6 µg/mL, the IC50 (µg/mL), pseudovirus neutralization [4] was 11.5 µg/mL and the IC50 (µg/ml), pseudovirus neutralization [5] was 5.67 µg/mL. The IC50 [6] was 0.09 µg/mL, the IC50 (µg/mL), pseudovirus neutralization [7] was 0.023 µg/mL and the IC50 (µg/ml), pseudovirus neutralization [8] was 0.06 µg/mL. The IC50 (µg/mL), pseudovirus neutralization [9] was 0.021 µg/mL, the IC50 (ug/ml), neutralizing activity [10] was 2.04 µg/mL and the IC50 neutralization [10] was 0.0444 µg/mL. The IC80, neutralization [10] was 0.18 µg/mL, the IC90, neutralization [10] was 0.43 µg/mL and the IC95, neutralization [10] was 1.05 µg/mL. The IC50 [11] was 3.6 µg/mL, the neutralization IC50 [12] was 0.0869 µg/mL and the neutralization IC50 [13] was 16.5 µg/mL. For the same substance, the IC50 (µg/ml), pseudovirus neutralization [14] was 0.027 µg/mL, the IC50 (ug/ml), neutralizing activity [15] was 0.214 µg/mL and the IC50 neutralization [15] was 0.214 µg/mL. For the same substance, the IC80, neutralization [15] was 1.13 µg/mL, the IC90, neutralization [15] was 3.21 µg/mL and the IC95, neutralization [15] was 9.65 µg/mL. The IC50 (µg/ml), pseudovirus neutralization [16] was 2.03 µg/mL, the IC50 (µg/ml), pseudovirus neutralization [17] was 0.03 µg/mL and the IC50 [18] was 0.01 µg/mL. For the same substance, the IC50 (µg/ml), pseudovirus neutralization [19] was 0.62 µg/mL, the neutralization IC50 [20] was 10.7 µg/mL and the IC50 (µg/ml), pseudovirus neutralization [21] was 1.45 µg/mL. It also gave an IC50 (µg/ml), pseudovirus neutralization [22] of 1.91 µg/mL and an IC50 (µg/ml), pseudovirus neutralization [23] of 0.003 µg/mL.
In the case of 4838_L06 (PGT-121) (antibody), the IC50, pseudovirus neutralization [24] is reported as 0.007 µg/mL, the IC50 (µg/mL) neutralization [25] is reported as 17.5 µg/mL and the IC50 (µg/mL), pseudovirus neutralization [26] is reported as 10.7 µg/mL. It also gave an IC50 (µg/mL) neutralization [27] of 0.017 µg/mL, a neutralization IC50 [28] of 0.08 µg/mL and an IC50 (µg/mL), pseudovirus neutralization [29] of 5.33 µg/mL. The IC50 (ug/ml), neutralizing activity [30] was > 10 µg/mL and the IC50 (µg/mL), pseudovirus neutralization [31] was 0.009 µg/mL.
Substance 4858_P08 (PGT-123) (antibody) has an IC50, pseudovirus neutralization [24] of 0.008 µg/mL, an IC50 (µg/mL) neutralization [25] of 42.4 µg/mL and an IC50 (µg/mL), pseudovirus neutralization [26] of 3.74 µg/mL. The IC50 (µg/mL) neutralization [27] was 0.021 µg/mL, the Fold IC50 increase relative to wild-type [32] was 2.8 fold and the IC50 (ug/ml), neutralizing activity [10] was 0.0047 µg/mL. The IC50, pseudovirus neutralization [10] was 0.0047 µg/mL, the IC80, pseudovirus neutralization [10] was 0.0175 µg/mL and the IC90 (pseudovirus neutralization) [10] was 0.0381 µg/mL. It also gave an IC95, pseudovirus neutralization [10] of 0.0791 µg/mL, an IC50 (ug/ml), neutralizing activity [15] of 0.0327 µg/mL and an IC50, pseudovirus neutralization [15] of 0.0328 µg/mL. The IC80, pseudovirus neutralization [15] was 0.145 µg/mL, the IC90 (pseudovirus neutralization) [15] was 0.339 µg/mL and the IC95, pseudovirus neutralization [15] was 0.726 µg/mL. For the same substance, the neutralization IC50 [28] was 0.073 µg/mL, the Fold IC50 increase relative to wild-type [33] was 6.2 fold and the IC50 (µg/mL), pseudovirus neutralization [29] was 11.1 µg/mL. For the same substance, the IC50 (ug/ml), neutralizing activity [30] was > 10 µg/mL, the Fold IC50 increase relative to wild-type [34] was 1.1 fold and the IC50 (µg/mL), pseudovirus neutralization [31] was 0.009 µg/mL.
4877_D15 (PGT-122) (antibody) was tested, and the IC50, pseudovirus neutralization [24] was 0.013 µg/mL, the IC50 (µg/mL) neutralization [25] was 19.1 µg/mL and the IC50 (µg/mL), pseudovirus neutralization [26] was > 50 µg/mL. The IC50 (µg/mL) neutralization [27] was 0.018 µg/mL, the IC50 (ug/ml), neutralizing activity [10] was 0.0115 µg/mL and the IC50 (ug/ml), neutralizing activity [15] was 0.0851 µg/mL. The neutralization IC50 [28] was 0.128 µg/mL, the IC50 (µg/mL), pseudovirus neutralization [29] was 11.7 µg/mL and the IC50 (ug/ml), neutralizing activity [30] was > 10 µg/mL. For the same substance, the IC50 (µg/mL), pseudovirus neutralization [31] was 0.012 µg/mL.
In the case of 5123_A06 (PGT-125) (antibody), the IC50, pseudovirus neutralization [24] is reported as 0.008 µg/mL, the IC50 (µg/mL) neutralization [25] is reported as > 50 µg/mL and the IC50 (µg/mL), pseudovirus neutralization [26] is reported as 0.065 µg/mL. The IC50 (µg/mL) neutralization [27] was 0.015 µg/mL, the Fold IC50 increase relative to wild-type [32] was 1.3 fold and the IC50 (ug/ml), neutralizing activity [10] was 0.0382 µg/mL. For the same substance, the neutralization IC50 [10] was 0.0382 µg/mL, the neutralization IC80 [10] was 0.144 µg/mL and the neutralization IC90 [10] was 0.339 µg/mL. It also gave a neutralization IC95 [10] of 0.892 µg/mL, an IC50 (ug/ml), neutralizing activity [15] of 0.0359 µg/mL and a neutralization IC50 [15] of 0.0359 µg/mL. For the same substance, the neutralization IC80 [15] was 0.133 µg/mL, the neutralization IC90 [15] was 0.288 µg/mL and the neutralization IC95 [15] was 0.597 µg/mL. For the same substance, the neutralization IC50 [28] was 0.026 µg/mL, the Fold IC50 increase relative to wild-type [33] was 3.6 fold and the IC50 (µg/mL), pseudovirus neutralization [29] was 0.015 µg/mL. For the same substance, the IC50 (ug/ml), neutralizing activity [30] was > 10 µg/mL, the Fold IC50 increase relative to wild-type [34] was 1.1 fold and the IC50 (µg/mL), pseudovirus neutralization [31] was > 50 µg/mL.
In the case of 5141_B17 (PGT-126) (antibody), the IC50, pseudovirus neutralization [24] is reported as 0.013 µg/mL, the IC50 (µg/mL) neutralization [25] is reported as > 50 µg/mL and the IC50 (µg/mL), pseudovirus neutralization [26] is reported as 0.021 µg/mL. It also gave an IC50 (µg/mL) neutralization [27] of 0.014 µg/mL, a Fold IC50 increase relative to wild-type [32] of 1.4 fold and an IC50 (ug/ml), neutralizing activity [10] of 0.0093 µg/mL. It also gave an IC50 (ug/ml), neutralizing activity [15] of 0.0249 µg/mL, a neutralization IC50 [28] of 0.03 µg/mL and a Fold IC50 increase relative to wild-type [33] of 1.8 fold. For the same substance, the IC50 (µg/mL), pseudovirus neutralization [29] was 0.047 µg/mL, the IC50 (ug/ml), neutralizing activity [30] was > 10 µg/mL and the Fold IC50 increase relative to wild-type [34] was 1.2 fold. It also gave an IC50 (µg/mL), pseudovirus neutralization [31] of 0.03 µg/mL.
5145_B14 (PGT-127) (antibody) was tested, and the IC50, pseudovirus neutralization [24] was 0.017 µg/mL, the IC50 (µg/mL) neutralization [25] was > 50 µg/mL and the IC50 (µg/mL), pseudovirus neutralization [26] was 0.029 µg/mL. For the same substance, the IC50 (µg/mL) neutralization [27] was 0.319 µg/mL, the Fold IC50 increase relative to wild-type [32] was 1.6 fold and the neutralization IC50 [28] was 0.059 µg/mL. The Fold IC50 increase relative to wild-type [33] was 1.6 fold, the IC50 (µg/mL), pseudovirus neutralization [29] was 0.056 µg/mL and the Fold IC50 increase relative to wild-type [34] was 0.3 fold. It also gave an IC50 (µg/mL), pseudovirus neutralization [31] of 0.393 µg/mL.
5329_C19 (PGT-136) (antibody) was tested, and the IC50 [35] was > 50 µg/mL, the neutralization IC50 [36] was > 50 µg/mL and the IC50 [4] was > 50 µg/mL. For the same substance, the IC50, single-round pseudovirus neutralization [37] was > 50 µg/mL, the IC50 [7] was > 50 µg/mL and the IC50 [9] was > 50 µg/mL. For the same substance, the neutralization IC50 [11] was > 50 µg/mL, the IC50, single-round pseudovirus neutralization [38] was > 50 µg/mL and the IC50 [39] was > 50 µg/mL. For the same substance, the neutralization IC50 [40] was > 50 µg/mL and the IC50, pseudovirus neutralization [41] was > 50 µg/mL.
